Data: patent publication CN111253487A (GUANGDONG HEC PHARMACEUTICAL, dated 2020)
Values belong to the binder of their own block, whether it stands above or below them.

Legend:
[1] = biological target: T1, CD19胞外区蛋白 (abcam, ab234966, 氨基酸序列编号第20位至291位) (UniProt P15391 20-291); test: western blot on reduced, denatured CD19 extracellular domain, antibody at 20μg/mL
T1 construct: range 20-291; also called 变性的CD19重组蛋白; CD19重组蛋白
T1 sequence (looked up): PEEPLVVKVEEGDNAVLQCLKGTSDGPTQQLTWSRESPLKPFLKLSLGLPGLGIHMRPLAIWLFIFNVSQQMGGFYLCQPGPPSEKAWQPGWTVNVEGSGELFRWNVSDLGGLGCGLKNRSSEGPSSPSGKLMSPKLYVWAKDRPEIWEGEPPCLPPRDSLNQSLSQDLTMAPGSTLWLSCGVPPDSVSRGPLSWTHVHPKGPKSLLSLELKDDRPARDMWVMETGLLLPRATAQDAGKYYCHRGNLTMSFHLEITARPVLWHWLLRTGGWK

[2] = biological target: T2, 表达在肿瘤细胞NALM-6表面的CD19 (UniProt P15391 20-556, limits assumed); test: flow cytometry on NALM-6 cells, FITC goat anti-mouse secondary
T2 construct: whole, on cells; also called CD19阳性细胞; NALM-6细胞
T2 sequence (looked up): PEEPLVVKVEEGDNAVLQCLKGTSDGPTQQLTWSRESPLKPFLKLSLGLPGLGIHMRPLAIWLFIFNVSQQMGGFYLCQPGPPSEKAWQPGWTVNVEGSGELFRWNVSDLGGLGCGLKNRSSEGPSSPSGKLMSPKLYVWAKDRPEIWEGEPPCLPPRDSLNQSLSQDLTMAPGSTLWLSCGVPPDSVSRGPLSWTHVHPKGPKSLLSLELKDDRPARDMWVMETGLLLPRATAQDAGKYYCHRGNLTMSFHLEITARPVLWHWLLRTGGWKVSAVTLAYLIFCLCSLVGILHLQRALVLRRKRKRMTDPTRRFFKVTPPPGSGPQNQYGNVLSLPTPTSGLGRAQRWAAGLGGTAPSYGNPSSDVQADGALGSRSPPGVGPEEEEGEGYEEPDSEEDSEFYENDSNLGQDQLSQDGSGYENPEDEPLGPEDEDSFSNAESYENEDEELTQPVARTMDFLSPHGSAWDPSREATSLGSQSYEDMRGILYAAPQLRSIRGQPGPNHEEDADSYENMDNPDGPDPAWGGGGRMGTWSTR

[3] = biological target: T3, CD19蛋白 (购自acro) (UniProt P15391 20-291); test: ELISA, CD19 protein coated, antibody in twofold dilutions from 0.1mg/mL, OD450
T3 construct: also called 重组CD19蛋白 (ACRO, CD9-H52H2)
T3 sequence (looked up): T1 sequence (looked up)

[4] = biological target: T2, 表达在肿瘤细胞NALM-6表面的CD19; test: flow cytometry of scFv on NALM-6 cells, PE goat anti-human secondary

binding result [1]: binds | binding result [2]: binds | binding result [3]: binds
B1: 抗CD19鼠源抗体 10H10-1 (antibody, V domains shown)
VH: EVQLQQSGAELVRPGTSVKVSCKASGYAFTNYFIEWVIQRPGQGLEWIGVINPGNSNTNYNEKFKGKATLTADKSSSTAYMQLSSLTSDDSAVYFCARSGTTATTYAMDYWGQGTSVIVSS
VL: DIVMTQTPLSLPVSLGDQVSISCRSSQTLVYSNGDTYLEWYLQKPGQSPKLLIYKLSNRFSGVPDRFSGSGSGTDFTLKISRVESEDLGVYYCFQGSYFPFTFGAGTKLEIK
notes: Murine anti-CD19 antibody from a hybridoma

binding result [4]: binds
B2: 10H10-1 scFv (单链抗体10H10-1) (scFv)
scFv: DIVMTQTPLSLPVSLGDQVSISCRSSQTLVYSNGDTYLEWYLQKPGQSPKLLIYKLSNRFSGVPDRFSGSGSGTDFTLKISRVESEDLGVYYCFQGSYFPFTFGAGTKLEIKGGGGSGGGGSGGGGSEVQLQQSGAELVRPGTSVKVSCKASGYAFTNYFIEWVIQRPGQGLEWIGVINPGNSNTNYNEKFKGKATLTADKSSSTAYMQLSSLTSDDSAVYFCARSGTTATTYAMDYWGQGTSVIVSS
notes: It was detected with PE-labelled goat anti-human antibody, and no tag or Fc is stated; also called CD19 scfv抗体 10H10-1
